In patent publication US20230288411A1, “POLYPEPTIDE, MULTIMER, SOLID PHASE, MEASUREMENT METHOD FOR TEST SUBSTANCE, AND REAGENT KIT” (SYSMEX CORPORATION, priority 2020, published 2023):

Experiments:
[1] = biological target: TSH (thyroid stimulating hormone) in HISCL (trademark) TSH Calibrators C0 to C5 (Sysmex Corporation) (UniProt P01215); test: chemiluminescent sandwich ELISA on D-streptavidin-immobilized plate; TSH 2 µIU/mL
[2] = biological target: TSH (thyroid stimulating hormone) in HISCL (trademark) TSH Calibrators C0 to C5 (Sysmex Corporation) (UniProt P01215); test: chemiluminescent sandwich ELISA on D-streptavidin-immobilized plate; TSH 0 µIU/mL (blank)
[3] = biological target: TSH (thyroid stimulating hormone) in HISCL (trademark) TSH Calibrators C0 to C5 (Sysmex Corporation) (UniProt P01215); test: chemiluminescent sandwich ELISA on D-streptavidin-immobilized plate; TSH 50 µIU/mL
[4] = biological target: TSH (thyroid stimulating hormone) in HISCL (trademark) TSH Calibrators C0 to C5 (Sysmex Corporation) (UniProt P01215); test: chemiluminescent sandwich ELISA on D-tamavidin 2-immobilized plate; TSH 120 µIU/mL
[5] = biological target: TSH (thyroid stimulating hormone) in HISCL (trademark) TSH Calibrators C0 to C5 (Sysmex Corporation) (UniProt P01215); test: chemiluminescent sandwich ELISA on D-streptavidin-immobilized plate; TSH 50 µIU/mL, five samples
[6] = biological target: TSH (thyroid stimulating hormone) in HISCL (trademark) TSH Calibrators C0 to C5 (Sysmex Corporation) (UniProt P01215); test: chemiluminescent sandwich ELISA on D-tamavidin 2-immobilized plate; TSH 0 µIU/mL (blank)
[7] = biological target: TSH (thyroid stimulating hormone) in HISCL (trademark) TSH Calibrators C0 to C5 (Sysmex Corporation) (UniProt P01215); test: chemiluminescent sandwich ELISA on D-tamavidin 2-immobilized plate; TSH 10 µIU/mL
[8] = biological target: TSH (thyroid stimulating hormone) in HISCL (trademark) TSH Calibrators C0 to C5 (Sysmex Corporation) (UniProt P01215); test: chemiluminescent sandwich ELISA on D-streptavidin-immobilized plate; TSH 200 µIU/mL
[9] = biological target: TSH (thyroid stimulating hormone) in HISCL (trademark) TSH Calibrators C0 to C5 (Sysmex Corporation) (UniProt P01215); test: chemiluminescent sandwich ELISA on D-tamavidin 2-immobilized plate; TSH 50 µIU/mL, five samples
[10] = biological target: TSH (thyroid stimulating hormone) in HISCL (trademark) TSH Calibrators C0 to C5 (Sysmex Corporation) (UniProt P01215); test: chemiluminescent sandwich ELISA on D-streptavidin-immobilized plate; TSH 10 µIU/mL
[11] = biological target: TSH (thyroid stimulating hormone) in HISCL (trademark) TSH Calibrators C0 to C5 (Sysmex Corporation) (UniProt P01215); test: chemiluminescent sandwich ELISA on D-tamavidin 2-immobilized plate; TSH 200 µIU/mL
[12] = biological target: TSH (thyroid stimulating hormone) in HISCL (trademark) TSH Calibrators C0 to C5 (Sysmex Corporation) (UniProt P01215); test: chemiluminescent sandwich ELISA on D-streptavidin-immobilized plate; TSH 120 µIU/mL
[13] = biological target: TSH (thyroid stimulating hormone) in HISCL (trademark) TSH Calibrators C0 to C5 (Sysmex Corporation) (UniProt P01215); test: chemiluminescent sandwich ELISA on D-tamavidin 2-immobilized plate; TSH 50 µIU/mL
[14] = biological target: TSH (thyroid stimulating hormone) in HISCL (trademark) TSH Calibrators C0 to C5 (Sysmex Corporation) (UniProt P01215); test: chemiluminescent sandwich ELISA on D-tamavidin 2-immobilized plate; TSH 2 µIU/mL

Chain of TSH (thyroid stimulating hormone) in HISCL (trademark) TSH Calibrators C0 to C5 (Sysmex Corporation) (P01215 25-116, chain 1 of 2): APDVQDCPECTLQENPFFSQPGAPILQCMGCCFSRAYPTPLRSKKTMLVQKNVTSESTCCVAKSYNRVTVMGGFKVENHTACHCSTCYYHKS
Chain of TSH (thyroid stimulating hormone) in HISCL (trademark) TSH Calibrators C0 to C5 (Sysmex Corporation) (P01222 21-132, chain 2 of 2, further chain): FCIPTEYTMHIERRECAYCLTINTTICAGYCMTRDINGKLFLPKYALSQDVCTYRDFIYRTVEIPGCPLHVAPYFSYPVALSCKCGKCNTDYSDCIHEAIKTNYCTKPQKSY

Count value [1]: 17300 count
Count value [2]: 1010 count
Count value [3]: 442000 count
Count value [4]: 1.32e+06 count
Count value (average of five samples) [5]: 410000 count
Count value [6]: 363 count
Count value [7]: 150000 count
Count value [8]: 1.26e+06 count
Count value (average of five samples) [9]: 668000 count
Count value [10]: 80400 count
Count value [11]: 1.58e+06 count
Count value [12]: 967000 count
Count value [13]: 700000 count
Count value [14]: 35300 count
Substance: L-biotin-labeled TSH antibody (thyroid stimulating hormone antibody T2-194, KITAYAMA LABES CO., LTD., labeled with L-biotin-AC5-OSu)
